We go through one molecule from paper doi:10.1101/2020.08.10.245050, “Crystal structures of Arabidopsis and Physcomitrella CR4 reveal the molecular architecture of CRINKLY4 receptor kinases” (bioRxiv, 2020).

Like-named read-outs stand apart in the source and are kept apart here. Where no end group is shown, it is not given here. [ ]: non-standard residue; d: D form. Hyp = O=C(O)[C@@H]1C[C@@H](O)CN1

The target in assay [1] is T1, biotinylated LRR ectodomain of BARELY ANY MERISTEM 1 (BAM1, residues 20 - 637) with Avi-tag (Arabidopsis (printed as AtBAM1), UniProt O49545 20-637, biotin (BirA biotinylation)).
T1 chain: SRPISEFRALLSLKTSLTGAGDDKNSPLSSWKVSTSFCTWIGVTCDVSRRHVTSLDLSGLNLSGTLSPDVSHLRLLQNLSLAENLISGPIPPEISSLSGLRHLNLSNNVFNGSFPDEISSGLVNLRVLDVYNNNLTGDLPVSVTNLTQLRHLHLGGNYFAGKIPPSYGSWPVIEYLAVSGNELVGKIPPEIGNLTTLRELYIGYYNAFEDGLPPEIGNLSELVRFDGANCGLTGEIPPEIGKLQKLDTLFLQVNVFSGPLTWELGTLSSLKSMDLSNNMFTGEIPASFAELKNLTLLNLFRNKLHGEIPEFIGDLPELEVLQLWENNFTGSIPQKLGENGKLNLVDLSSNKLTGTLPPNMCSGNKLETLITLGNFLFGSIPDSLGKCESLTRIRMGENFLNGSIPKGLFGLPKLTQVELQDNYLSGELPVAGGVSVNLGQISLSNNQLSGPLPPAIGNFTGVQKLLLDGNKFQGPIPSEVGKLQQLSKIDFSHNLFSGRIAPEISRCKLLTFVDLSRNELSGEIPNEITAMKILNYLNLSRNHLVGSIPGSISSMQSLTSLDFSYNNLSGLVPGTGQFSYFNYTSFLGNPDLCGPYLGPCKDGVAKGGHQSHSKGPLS

Assay [2] concerns the target T1, biotinylated LRR ectodomain of BARELY ….
The target in assay [3] is T2, biotinylated LRR ectodomain of BARELY ANY MERISTEM 1 (BAM1, residues 20 - 637) with Avi-tag (Arabidopsis (printed as AtBAM1), UniProt O49545 20-637, biotin (BirA biotinylation)).
T2 construct: BAM1 (AtBAM1) LRR ectodomain, residues 20-637, synthetic gene (Geneart), secreted with the Drosophila melanogaster BiP signal peptide; The sentence on the vector most likely means that the non-cleavable Avi-tag is C-terminal as well; also called AtBAM1^LRR; BAM1^LRR; source: biotinylated with BirA; not shown: StrepII, C-terminal, cleaved; 10x His, C-terminal, cleaved
T2 sequence (looked up): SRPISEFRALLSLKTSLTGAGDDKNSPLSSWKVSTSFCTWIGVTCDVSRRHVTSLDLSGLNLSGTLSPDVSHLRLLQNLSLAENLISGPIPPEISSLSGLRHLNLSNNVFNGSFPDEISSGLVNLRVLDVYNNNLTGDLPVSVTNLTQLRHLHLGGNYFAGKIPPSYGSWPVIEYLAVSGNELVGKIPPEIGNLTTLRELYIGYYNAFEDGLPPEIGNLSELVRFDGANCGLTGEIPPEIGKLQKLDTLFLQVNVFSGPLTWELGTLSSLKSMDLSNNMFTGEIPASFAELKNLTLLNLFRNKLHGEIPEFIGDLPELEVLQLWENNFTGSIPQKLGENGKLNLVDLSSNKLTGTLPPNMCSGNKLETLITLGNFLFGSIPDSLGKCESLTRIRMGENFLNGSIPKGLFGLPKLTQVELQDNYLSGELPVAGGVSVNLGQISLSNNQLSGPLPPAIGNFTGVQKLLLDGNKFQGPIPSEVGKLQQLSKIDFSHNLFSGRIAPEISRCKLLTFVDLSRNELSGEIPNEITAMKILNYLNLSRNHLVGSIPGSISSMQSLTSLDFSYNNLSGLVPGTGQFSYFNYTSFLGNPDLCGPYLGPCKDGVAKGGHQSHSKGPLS
Kind of assay: grating-coupled interferometry (GCI); Creoptix WAVE, 4PCP chip; biotinylated ectodomain captured on immobilised streptavidin; CLE40 peptide as analyte, 1:2 dilution series from 10 µM; 25 °C; 20 mM citrate pH 5.0, 250 mM NaCl, 0.01 % Tween 20; mass transport binding model; triplicates. Conditions: both partners purified.

B1: CLAVATA3/ESR-RELATED 40 (CLE40) peptide (peptide)
peptide: RQV[Hyp]TGSDPLHH
notes: the P at position 4 is hydroxyproline; also called synthetic CLE40 peptide; source: synthetic peptide (Peptide Specialty Labs GmbH)
In turn, B1 displayed a koff in assay [1] of 2.4 s⁻¹. The Kd in assay [2] is 697 nM; in assay [3], roughly 1000 nM.

By koff is commonly meant a measure of how fast the partners let go of each other. In general, Kd refers to the concentration at which binding is half-saturated. Low values mean tighter binding, high ones weaker binding.
